The values below come from patent US20070054851A1.

A value given as a limit tells only on which side of the number the result lay.

For test [1], the target named is ErbB1 receptor (EGF receptor) on HeLa 229 cells (UniProt P00533). Kind of test: cell-based or functional assay.
For the next test, the target named is ErbB1 receptor (UniProt P00533). Kind of test: cell-based or functional assay.

Sequence of PEGylated betacellulin produced using the mPEG-SMB-20K reagent (P35070 other isoform, or with tags, fused parts or gaps limits assumed): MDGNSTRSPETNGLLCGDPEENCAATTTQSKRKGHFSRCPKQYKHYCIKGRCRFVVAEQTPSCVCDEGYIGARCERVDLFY
Sequence of PEGylated betacellulin produced using the mPEG-ButyrALD-20K reagent (P35070 other isoform, or with tags, fused parts or gaps limits assumed): as above
Sequence of UniProt P35070 (P35070 other isoform, or with tags, fused parts or gaps limits assumed): as above

Consider “PEGylated betacellulin produced using the mPEG-SMB-20K reagent (from UniProt P35070 32-111) (ligand)”, for which, in test [1], the ELISA activity is equivalent to [BTC] nM (phospho-EGFR pY1068 ELISA, HeLa cells; SEC column S200; 40 nM submitted to assay) stood at 14 nM; the activity % (phospho-EGFR pY1068 ELISA, HeLa cells; SEC column S70; 40 nM submitted to assay) stood at 26%; the activity % (phospho-EGFR pY1068 ELISA, HeLa cells; SEC column S200; 40 nM submitted to assay) amounted to 34%. The substance also had an activity in phospho-EGFR pY1068 ELISA on HeLa 229 cells, against unreacted betacellulin (fold lower than unreacted betacellulin) in the test with ErbB1 receptor of 3.

In test [1], “PEGylated betacellulin produced using the mPEG-ButyrALD-20K reagent (from UniProt P35070 32-111) (ligand)” yielded an activity % (phospho-EGFR pY1068 ELISA, HeLa cells; SEC column S70; 40 nM submitted to assay) of 58% and an activity % (phospho-EGFR pY1068 ELISA, HeLa cells; SEC column S200; 40 nM submitted to assay) of 55%. In addition, in the test with ErbB1 receptor (scale: % reduction against unreacted betacellulin), the activity in phospho-EGFR pY1068 ELISA on HeLa 229 cells, against unreacted betacellulin is less than 50.

“Unreacted (row label under 'PEGylation chemistry'; taken as the unreacted betacellulin fraction from the S70 size exclusion column) (from UniProt P35070 32-111) (ligand)”: in test [1], the ELISA activity is equivalent to [BTC] nM (phospho-EGFR pY1068 ELISA, HeLa cells; SEC column S70; 40 nM submitted to assay) was determined as 0 nM and the activity % (phospho-EGFR pY1068 ELISA, HeLa cells; SEC column S70; 40 nM submitted to assay) worked out at 0%.
